Results from patent publication US20250313631A1 (HUMMINGBIRD BIOSCIENCE PTE, published 2025).
Residue numbers refer to the chain shown, from its start. In names and notes the source's numbering stands. Each block holds one binder with its values, some of them ahead of it.

Tests used:
human CTLA4 = human CTLA4 (human, UniProt P16410 36-162); assay: ELISA, plate coated with the antigen
human B7H4 = biological target: T1, human B7H4 (human, UniProt Q7Z7D3 25-258, limits assumed); assay: ELISA, plate coated with the antigen
T1 construct: also called VTCN1
T1 sequence (looked up): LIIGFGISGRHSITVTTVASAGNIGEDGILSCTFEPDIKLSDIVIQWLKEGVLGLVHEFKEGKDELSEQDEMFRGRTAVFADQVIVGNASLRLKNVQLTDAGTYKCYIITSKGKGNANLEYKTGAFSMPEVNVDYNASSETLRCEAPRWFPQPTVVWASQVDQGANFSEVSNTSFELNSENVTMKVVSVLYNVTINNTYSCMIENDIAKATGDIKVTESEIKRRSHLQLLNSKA

human B7H3 [1] = biological target: T2, human B7H3 (human, UniProt Q5ZPR3 29-461, limits assumed); assay: ELISA, plate coated with the antigen
T2 construct: also called CD276
T2 sequence (looked up): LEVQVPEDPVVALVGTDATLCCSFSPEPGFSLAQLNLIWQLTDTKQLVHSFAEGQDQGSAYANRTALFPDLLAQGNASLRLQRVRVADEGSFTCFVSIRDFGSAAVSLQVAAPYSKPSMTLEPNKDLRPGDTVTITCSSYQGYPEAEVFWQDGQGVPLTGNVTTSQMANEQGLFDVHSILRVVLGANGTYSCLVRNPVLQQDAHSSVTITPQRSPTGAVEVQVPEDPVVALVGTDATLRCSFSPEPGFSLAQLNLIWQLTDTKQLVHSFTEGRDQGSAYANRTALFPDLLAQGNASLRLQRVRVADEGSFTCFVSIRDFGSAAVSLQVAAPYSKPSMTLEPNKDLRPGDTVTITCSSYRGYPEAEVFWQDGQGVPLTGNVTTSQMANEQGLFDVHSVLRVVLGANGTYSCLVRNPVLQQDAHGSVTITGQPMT

human B7H6 = biological target: T3, human B7H6 (human, UniProt Q68D85 25-262); assay: ELISA, plate coated with the antigen
T3 construct: also called NCR3LG1
T3 sequence (looked up): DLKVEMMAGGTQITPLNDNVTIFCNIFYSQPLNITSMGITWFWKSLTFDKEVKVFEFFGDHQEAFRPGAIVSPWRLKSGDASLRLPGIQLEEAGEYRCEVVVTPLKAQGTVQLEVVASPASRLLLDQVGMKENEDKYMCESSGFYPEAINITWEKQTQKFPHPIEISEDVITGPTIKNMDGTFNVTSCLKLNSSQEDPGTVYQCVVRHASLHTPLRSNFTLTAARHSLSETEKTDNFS

human B7H7 = biological target: T4, human B7H7 (human, UniProt Q9UM44 23-344); assay: ELISA, plate coated with the antigen
T4 construct: also called HHLA2
T4 sequence (looked up): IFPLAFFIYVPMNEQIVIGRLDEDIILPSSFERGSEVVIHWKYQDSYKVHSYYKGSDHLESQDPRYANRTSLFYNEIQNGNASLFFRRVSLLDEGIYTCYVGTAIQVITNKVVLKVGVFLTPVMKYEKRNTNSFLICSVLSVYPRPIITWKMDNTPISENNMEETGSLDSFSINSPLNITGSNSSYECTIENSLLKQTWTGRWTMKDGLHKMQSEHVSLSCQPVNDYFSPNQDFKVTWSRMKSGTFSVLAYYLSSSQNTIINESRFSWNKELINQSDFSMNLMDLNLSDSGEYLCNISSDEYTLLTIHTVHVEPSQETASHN

human PD-1 = human PD-1 (human, UniProt Q15116 25-167); assay: ELISA, plate coated with the antigen
[2] = biological target: T5, recombinant human VISTA (His-tagged) (human, UniProt Q9H7M9 33-194); assay: ELISA, plate coated with human VISTA
T5 construct: bought soluble protein (Sino Biological); also called hVISTA; human VISTA polypeptide

[3] = biological target: T5, recombinant human VISTA (His-tagged); assay: antigen-binding ELISA; HMBD-002 in F8, day 30 at 40°C
[4] = biological target: T5, recombinant human VISTA (His-tagged); assay: antigen-binding ELISA; HMBD-002 in F10, day 30 at 40°C
[5] = biological target: T5, recombinant human VISTA (His-tagged); assay: ELISA on coated human VISTA, antibody diluted in buffer of pH 6
[6] = biological target: T5, recombinant human VISTA (His-tagged); assay: antigen-binding ELISA; reference standard run with the day 30 samples
[7] = biological target: T5, recombinant human VISTA (His-tagged); assay: ELISA, VISTA-HIS protein coated; ELISA, human VISTA-HIS
human B7H3 [8] = biological target: T2, human B7H3; assay: ELISA, plate coated with human B7H3, antibody titrated
[9] = biological target: T5, recombinant human VISTA (His-tagged); assay: antigen-binding ELISA; HMBD-002 in F3, day 10 at 40°C
[10] = biological target: T5, recombinant human VISTA (His-tagged); assay: antigen-binding ELISA; reference standard run with the day 0 samples; reference standard, run with the Day 0 samples
VISTA-Fc = biological target: T6, VISTA-Fc (UniProt Q9H7M9 33-194); assay: competition ELISA: VISTA-Fc coated, VSIG3-His 0.3 ug/ml as the blocked ligand, anti-His-HRP detection
T6 construct: also called VISTA-Ig; not shown: Fc/Ig part not described

[11] = biological target: T7, recombinant mouse VISTA (His-tagged) (mouse, UniProt Q9D659 33-191); assay: BLI (Octet), 1:1 global fit, His-tagged mouse VISTA captured
T7 construct: also called murine VISTA; mVISTA
T7 sequence (looked up): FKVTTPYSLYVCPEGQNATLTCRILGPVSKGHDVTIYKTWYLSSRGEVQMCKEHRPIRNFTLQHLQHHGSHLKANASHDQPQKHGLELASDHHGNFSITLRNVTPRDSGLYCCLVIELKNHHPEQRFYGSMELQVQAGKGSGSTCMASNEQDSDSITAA

binding result (human CTLA4): no binding (tested: log -7.5 M)
binding result (human B7H4): no binding (tested: log -7.5 M)
binding result (human B7H3 [1]): no binding (tested: log -7.5 M)
binding result (human B7H6): no binding (tested: log -7.5 M)
binding result (human B7H7): no binding (tested: log -7.5 M)
binding result (human PD-1): no binding (tested: log -7.5 M)
B1: anti-VISTA clone V4-C24 IgG1 (antibody, V domains shown)
VH: QVQLQESGPGLVKPSDTLSLTCTVSGYSITSDYTWNWIRQTPGKGLEWIGHITYSGSVSYNPSLRSRVTISRDTSKNQFSLKLSSVTAADTATYSCARALYYPWYFDVWGTGTTVTVSS
VL: EIVLTQSPATLSLSPGERATLSCRASSSVGYIHWYQQKPGQAPRPLIYTTSYRATGIPARFSGSGSGTDNTLTISSLEPEDSAVYYCQQWSSYPPITFGGGTKLEVKR

EC50 (read off the curve) [2]: ~10 pM
B2: anti-VISTA clone V4-C27 IgG1 (antibody, V domains shown)
VH: B1 VH
VL: B1 VL with T49A, S51Y, Y52N

EC50 [3]: 22.7 pM
EC50 [4]: 27 pM
EC50 [5]: 58.9 pM
EC50 [6]: 52.7 pM
EC50 [7]: 5.12 pM
binding result (human B7H3 [8]): no binding (tested: about 3e-8 M)
EC50 [9]: 34.8 pM
EC50 [10]: 30.7 pM
B3: V4-C26 hIgG4 (antibody)
heavy: not shown
light: EIVLTQSPATLSLSPGERATLSCRASSSVGYIHWYQQKPGQAPRPIIYTTSNRATGIPARFSGSGSGTDNTLTISSLEPEDSAVYYCQQWSSYPPITFGGGTKLEVKRTVAAPSVFIFPPSDEQLKSGTASVVCLLNNFYPREAKVQWKVDNALQSGNSQESVTEQDSKDSTYSLSSTLTLSKADYEKHKVYACEVTHQGLSSPVTKSFNRGEC
notes: human IgG4 (S228P)/kappa format; also called HMBD-002; HMBD-002-V4C26

IC50 (read off the curve) (VISTA-Fc): ~4000 pM
Kd [11]: 108000 pM
koff [11]: 0.00656 s⁻¹
kon [11]: 60900 M⁻¹ s⁻¹
B4: anti-VISTA clone 4M2-C12 IgG1 (antibody)
heavy: not shown
light: DIVITQTPAILSTSPGEKVTMTCRASSSVGYIHWYQQKPGSSPKPWIYATSNLASGVPARFSGSGSGTSNSLTITRVEAEDAATYYCQQWSSYPPITFGGGTKLEVKRTVAAPSVFIFPPSDEQLKSGTASVVCLLNNFYPREAKVQWKVDNALQSGNSQESVTEQDSKDSTYSLSSTLTLSKADYEKHKVYACEVTHQGLSSPVTKSFNRGEC
notes: mouse variable regions on human IgG1/kappa constant regions; also called V4; V4pr
